Measurements as given in US20200397816A1, “METHODS TO TREAT INFLAMMATORY AND SMOOTH MUSCLE CELL PROLIFERATION DISORDERS” (THE TRUSTEES OF INDIANA UNIVERSITY, priority 2019, published 2020).
“Also recorded” adds a separate entry of the source.

Experiments:
[1] = tested on: EGR1; test: EGR1 protein western blot (whole cell lysates, nuclear fractions) in RAW 264.7 macrophages; assay type: cell-based, mouse; conditions: macrophages
Protocol: (§1) RAW 264.7 (ATCC) mouse macrophages and Human Embryonic Kidney (HEK) 293T cells were cultured in DMEM media with 10% fetal bovine serum […] and glutamine HEPES buffer and beta-mercaptoethanol were added to the growth medium used for RAW 264.7 macrophages. Primary human pulmonary artery smooth muscle cells (hPASMC) purchased from Lonza (Walkersville, Md.) were cultured in complete growth medium containing smooth muscle growth media-2 (SmGM-2) with 10% FBS and growth factors provided as a kit by the supplier (Lonza, (Walkersville, Md.). THP-1 human monocyte cells were cultured in RPMI 1640 with 10% FBS and glutamine Cells were cultured in a humidified atmosphere with 5% CO2 at 370 C. For all studies passages 5-14 were used for RAW 264.7 and passages 5-10 were used for hPASMCs. For treatment studies, subconfluent cells plated in multi-well plates were serum starved and if required, pretreated for with inhibitors before stimulating with 2 μg/mL recombinant EMAP II.
(§2) After appropriate treatments, protein lysates were prepared by using RIPA buffer supplemented with phosphatase and protease inhibitors (Thermo Fischer Scientific). Alpha-tubulin was used as a loading control. For nuclear and cytoplasmic fractionation, NE-PER kit from Thermo Fischer Scientific was used. Western blots were performed according to standard methods and quantified using densitometry using Image Studio Lite software from LI-COR Biosciences.
RAW 264.7 (ATCC) mouse macrophages and HEK-293T (ATCC) cells were cultured in DMEM media with 10% (v/v) fetal bovine serum (FBS) and 2 mM glutamine HEPES buffer and beta-mercaptoethanol were added to the growth medium used for RAW 264.7 macrophages. Primary human pulmonary artery smooth muscle cells (hPASMC) purchased from Lonza (Walkersville, Md.) were cultured in complete growth medium containing smooth muscle growth media-2 (SmGM-2) with 10% FBS and growth factors provided as a kit by the supplier (Lonza, (Walkersville, Md.). THP-1 human monocyte cells were cultured in RPMI 1640 with 10% FBS and glutamine Cells were cultured in a humidified atmosphere with 5% CO2 at 37° C. For all studies passages 5-14 were used for RAW 264.7 and passages 5-10 were used for hPASMCs. For treatment studies, subconfluent cells plated in multi-well plates were serum starved and if required, pretreated with inhibitors before stimulation with 2 μg/mL recombinant EMAP II.
as §2, with “Fisher” for “Fischer”, “For nuclear and cytoplasmic fractionation, NE-PER kit from Thermo Fischer Scientific was used.” left out

[2] = tested on: SphK1; test: SphK1 protein western blot in RAW 264.7 macrophages; assay type: cell-based, mouse
Protocol: (§3) RAW 264.7 (ATCC) mouse macrophages and Human Embryonic Kidney (HEK) 293T cells were cultured in DMEM media with 10% fetal bovine serum […] and glutamine HEPES buffer and beta-mercaptoethanol were added to the growth medium used for RAW 264.7 macrophages. […]
After appropriate treatments, protein lysates were prepared by using RIPA buffer supplemented with phosphatase and protease inhibitors (Thermo Fischer Scientific). […] Western blots were performed according to standard methods and quantified using densitometry using Image Studio Lite software from LI-COR Biosciences. […]
(§4) After appropriate treatments, protein lysates were prepared by using RIPA buffer supplemented with phosphatase and protease inhibitors (Thermo Fisher Scientific). […] Western blots were performed according to standard methods and quantified using densitometry using Image Studio Lite software from LI-COR Biosciences.

[3] = tested on: SphK1; test: SphK1 transcripts qRT-PCR in RAW 264.7 macrophages; assay type: cell-based, mouse
Protocol: as §3
(§5) Total RNA was extracted with TriZol using standard RNA extraction protocol and reverse transcribed with SuperScript III Reverse Transcriptase (Thermo Fischer Scientific). SphK1, Tnf, Il6, EGR1, Gapdh, Hprt1 transcripts were quantified using PrimePCR SYBR Green assays from BioRad. […]
(§6) Total RNA was extracted with TriZol using standard RNA extraction protocol and reverse transcribed with SuperScript III Reverse Transcriptase (Thermo Fisher Scientific). SPHK1, Tnf, Il6, EGR1, Gapdh, Hprt1 transcripts were quantified using PrimePCR SYBR Green assays from BioRad.

[4] = tested on: pERK1/2; test: pERK1/2 western blot time course in hPASMC; assay type: cell-based, human; conditions: SMCs
Protocol: as §1, §2
(§7) RAW 264.7 (ATCC) mouse macrophages and HEK-293T (ATCC) cells were cultured in DMEM media with 10% (v/v) fetal bovine serum (FBS) and 2 mM glutamine HEPES buffer and beta-mercaptoethanol were added to the growth medium used for RAW 264.7 macrophages. […]
as §4

[5] = tested on: pSTAT3; test: pSTAT3 levels in SMCs (data not shown); assay type: cell-based, human
[6] = tested on: S1P; test: S1P, sphingosine and ceramides by HPLC/MS/MS in RAW 264.7 macrophages; assay type: cell-based, mouse; conditions: EMAP II 0-24 hours
Protocol: as §1
Collected cells were rinsed with PBS, pelleted and frozen at minus 80° Celsius. […] Sphingolipids are normalized to inorganic phosphate levels determined from the Bligh & Dyer lipid extraction method. […]
(§8) Collected cells were rinsed with PBS, pelleted. […] Sphingolipids were normalized to inorganic phosphate levels in PASMC which was determined from the Bligh & Dyer lipid extraction method. […]

[7] = tested on: S1P; test: S1P, sphingosine and ceramides by HPLC/MS/MS in hPASMC; assay type: cell-based, human
Protocol: as §1
Collected cells were rinsed with PBS, pelleted and frozen at minus 80° Celsius. Sphingolipids extraction and analysis is carried out at the Medical University of South Carolina (MUSC) core facility using eight-point calibration curves generated for each target analyte by High Performance Liquid Chromatography-Tandem Mass Spectrometry (HPLC/MS/MS) system operating in positive multiple reaction-monitoring (MRM) mode engaging a gradient elution. Sphingolipids are normalized to inorganic phosphate levels determined from the Bligh & Dyer lipid extraction method. Biological samples were from different passage numbers and on different days.
as §7, §8

[8] = tested on: Il6; test: Il6 transcripts qRT-PCR in hPASMC; assay type: cell-based, human; conditions: SMCs, EMAP II time course
Protocol: as §3, §5, §6

[9] = tested on: hPASMC; test: WST-1 cell proliferation assay in hPASMC; assay type: cell-based, human; conditions: SMCs; EMAP II 2 μg/mL 48 hours
Protocol: (§9) Cell proliferation of hPASMCs was assessed using WST-1 cell proliferation reagent (Roche Diagnostic Corporation, IN) in a 96-well plate. Human PASMCs were seeded at 4200 cells/well density in 100 μl complete medium and serum starved for overnight. Cells were stimulated for 48 hours with 2 μg/mL EMAP II following the pretreatment with inhibitors. WST-1 reagent (10 μL) was added into each well and incubated for 90 minutes in a humidified atmosphere with 5% CO2 at 370 C. Absorbance was measured at 450 nm using microplate reader. Blank control well was with medium and WST-1 reagent without cultured cells. All samples were in duplicates. Cell proliferation was determined by subtracting the background reading from average of duplicate of each sample.
as §9, with “37°” for “370”, “Blank control well was with medium and WST-1 reagent without cultured cells. All samples were in duplicates.” left out

B1: EMAP II: 6x-His tagged recombinant EMAP II, cleaved C-terminal peptide of AIMP1 (SEQ ID NO: 2), pro-inflammatory cytokine (protein)
chain: IAGSADSKPIDVSRLDLRIGCIITARKHPDADSLYVEEVDVGEIAPRTVVSGLVNHVPLEQMQNRMVILLCNLKPAKMRGVLSQAMVMCASSPEKIEILAPPNGSVPGDRITFDAFPGEPDKELNPKKKIWEQIQPDLHTNDECVATYKGVPFEVKGKGVCRAQTMSNSGIK
In the case of B1, the “EGR1 expression in whole cell lysates” value ([1]; 1 to 2 hours following EMAP II) is reported as “significant upregulation”, the “upregulation of nuclear expression of EGR1” value ([1]; EMAP II 2 μg/mL, at 2 hours) is reported as 9 fold and the “protein expression of SphK1 compared to control” value ([2]; EMAP II treated macrophages) is reported as “about 1.7 times”. For the same molecule, the SphK1 protein expression ([2]; macrophages, EMAP II 6 hours) was “significant overexpression; also recorded: significantly increased”, the “induction of SphK1 transcription compared to control” value ([3]; EMAP II treated macrophages) was “about 4 times” and the “time of peak SphK1 transcription after EMAP II stimulation” value ([3]; macrophages) was 3 h. For the same molecule, the “earliest time pERK1/2 reached significance” value [4] was 3 minutes, the “time of pERK1/2 peak” value [4] was 3 minutes and the “ERK1/2 phosphorylation (pERK1/2)” value ([4]; 24-hour time course) was “bi-modal ERK1/2 activation; also recorded: induced pERK1/2”. The “pSTAT3 levels / STAT3 activation” value [5] was “does not impact; also recorded: no STAT3 activation”, the “cellular sphingosine and ceramide levels” value [6] was “bi-modal depreciation; also recorded: decreasing levels over time” and the “cellular S1P levels” value ([6]; normalized against inorganic phosphates) was “continuous elevation”. For the same molecule, the “extracellular S1P compared to control” value ([7]; SMCs growth media, 1 hour of EMAP II) was “elevation; also recorded: elevated”, the “cellular sphingosine and ceramide levels” value ([7]; SMCs, EMAP II 0-24 hours) was “depreciation throughout the time; also recorded: decreasing levels over time” and the “cellular S1P levels (HPLC/MS/MS)” value ([7]; SMCs, EMAP II 0-24 hours, normalized against inorganic phosphates) was “bi-modal elevation”. For the same molecule, the Il6 transcription [8] was “increased transcription” and the “cell proliferation (WST1)” value [9] was “promotes cell proliferation”.
